Laboratory results published in patent US20240158477A1.

What was measured:
[1] = target: RBD-Fc (SARS-CoV-2 S protein amino acids 319-541 with human IgG1 Fc) (SARS-CoV-2; human) (UniProt P0DTC2)
[2] = target: SARS-CoV-2 S protein (wildtype) (SARS-CoV-2) (UniProt P0DTC2); assay: cell-based or functional assay

Substance Fc tagged VHH72 (Fc fusion) has an EC50 (read off the curve) [1] of 0.2 nM and an IC50, authentic SARS-CoV-2 neutralization on Vero-E6 cells (viral RNA by RT-PCR) [2] of 13.8 nM.
